Results reported in patent US20150147274A1 (CANCER RESEARCH TECHNOLOGY, published 2015).
Changes are numbered by the printed parent chain.

B1: 112_H2 (scFv)
scFv: QMQLVQSGAEVKKPGAPVKVSCKVSGYTFTDYYMHWVQQAPGKGLEWMGLVDPEDGETIYAEKFQGRVTITADTSTDTAYMELSSLRSEDTAVYYCATDATTPYWGMQVWGQGTLVTVSSLEGGGGSGGGGSGGGASDIQMTQSPSSLSASVGDRVTITCQASQDISNYLNWYQQKPGRAPKVLIYDASNLETGVPSRFSGSGSGTEFTLTISNLRPDDFATYYCQQGDSFPLTFGGGTKVEIK
notes: not shown: 6xHis/tri-FLAG tags
B2: 108_E1 (scFv)
scFv: B1 scFv with G106F, M107P, Q108L
notes: as for B1
B3: 107_C6 (scFv)
scFv: B1 scFv with Q108S
notes: as for B1
B4: 108_F11 (scFv)
scFv: B1 scFv with A100G, T101S, T102N, P103L, Y104S, G106Q, Q108D
notes: as for B1
B5: 108_E10 (scFv)
scFv: B1 scFv with G106F, M107P, Q108W
notes: as for B1
B6: 107_C5 (scFv)
scFv: B1 scFv with G106Y, M107P, Q108I
notes: as for B1
B7: 107_A6 (scFv)
scFv: B1 scFv with G106T, M107P, Q108F
notes: as for B1
B8: 108_E11 (scFv)
scFv: B1 scFv with W105C, G106S, M107R, Q108T, V109S
notes: as for B1
B9: 108_D12 (scFv)
scFv: B1 scFv with G106T, M107P, Q108Y
notes: as for B1
B10: 108_E5 (scFv)
scFv: B1 scFv with Q108W, V109I
notes: as for B1
B11: 107_A11 (scFv)
scFv: B1 scFv with Q108A, V109W
notes: as for B1
B12: 108_D3 (scFv)
scFv: B1 scFv with G106F, M107P, Q108Y
notes: as for B1
B13: 108_D1 (scFv)
scFv: B1 scFv with G106T, M107P, Q108W, V109K
notes: as for B1
B14: 107_B8 (scFv)
scFv: B1 scFv with Q108A, V109E
notes: as for B1
B15: 108_D2 (scFv)
scFv: B1 scFv with G106A, M107P, Q108W
notes: as for B1
B16: 108_C12 (scFv)
scFv: B1 scFv with Q108A, V109S
notes: as for B1
B17: 107_B6 (scFv)
scFv: B1 scFv with V109K
notes: as for B1
B18: 108_E4 (scFv)
scFv: B1 scFv with Q108I, V109W
notes: as for B1
B19: 107_A10 (scFv)
scFv: B1 scFv with V109E
notes: as for B1
B20: 108_D7 (scFv)
scFv: B1 scFv with Q108D, V109M
notes: as for B1
B21: 108_D9 (scFv)
scFv: B1 scFv with G106Y, M107P, Q108Y
notes: as for B1
B22: 108_E12 (scFv)
scFv: B1 scFv with G106L, M107A, Q108A, V109E
notes: as for B1
B23: 109 H2 (scFv)
scFv: B1 scFv with Q108W, V109E
notes: as for B1
B24: 107_A9 (scFv)
scFv: B1 scFv with Q108M, V109T
notes: as for B1
B25: 107_B12 (scFv)
scFv: B1 scFv with Q108T, V109A
notes: as for B1
B26: 108_F3 (scFv)
scFv: B1 scFv with Q108A, V109K
notes: as for B1
B27: 107_B4 (scFv)
scFv: B1 scFv with G106F, M107P, Q108N
notes: as for B1
B28: 107_A12 (scFv)
scFv: B1 scFv with G106W, Q108A, V109K
notes: as for B1
B29: 108_F2 (scFv)
scFv: B1 scFv with Q108S, V109S
notes: as for B1
B30: 107_A2 (scFv)
scFv: B1 scFv with V109S
notes: as for B1
B31: 107_B5 (scFv)
scFv: B1 scFv with V109I
notes: as for B1
B32: 108_E7 (scFv)
scFv: B1 scFv with Q108W, V109R
notes: as for B1
B33: 108_G1 (scFv)
scFv: B1 scFv with G106F, M107P, Q108R, V109M
notes: as for B1
B34: 108_D10 (scFv)
scFv: B1 scFv with Q108S, V109H
notes: as for B1
B35: 107_A3 (scFv)
scFv: B1 scFv with P103A, V109K
notes: as for B1
B36: 107_B3 (scFv)
scFv: B1 scFv with Q108K, V109M
notes: as for B1
B37: 108_C11 (scFv)
scFv: B1 scFv with G106F, M107P, Q108I, V109I
notes: as for B1
B38: 108_C8 (scFv)
scFv: B1 scFv with G106F, M107P, Q108Y, V109I
notes: as for B1
B39: 107_A4 (scFv)
scFv: B1 scFv with G106F, M107P, Q108Y, V109H
notes: as for B1
B40: 108_G3 (scFv)
scFv: B1 scFv with G106A, M107P, Q108W, V109R
notes: as for B1
B41: 107_C4 (scFv)
scFv: B1 scFv with G106S, M107P, Q108W, V109M
notes: as for B1
B42: 107_B1 (scFv)
scFv: B1 scFv with T102H, P103I, G106N, Q108D, V109I
notes: as for B1
B43: 107_B10 (scFv)
scFv: B1 scFv with Q108R
notes: as for B1
B44: 108_F6 (scFv)
scFv: B1 scFv with W105C, G106C, M107T, Q108I, V109E
notes: as for B1
B45: 107_B11 (scFv)
scFv: B1 scFv with Q108A, V109M
notes: as for B1
B46: 107_B7 (scFv)
scFv: B1 scFv with G106C, Q108R, V109A
notes: as for B1
B47: 107_A5 (scFv)
scFv: B1 scFv with Q108S, V109K
notes: as for B1
B48: 108_G6 (scFv)
scFv: B1 scFv with G106F, M107P, Q108V, V109W
notes: as for B1
B49: 108_D4 (scFv)
scFv: B1 scFv with Q108S, V109G
notes: as for B1
B50: 108 E2 (scFv)
scFv: B1 scFv with G106T, M107P, Q108W
notes: as for B1
B51: 108_G5 (scFv)
scFv: B1 scFv with G106W, V109S
notes: as for B1
B52: 107_C2 (scFv)
scFv: B1 scFv with Q108V, V109K
notes: as for B1
B53: 107_B2 (scFv)
scFv: B1 scFv with V109M
notes: as for B1
B54: 108_D11 (scFv)
scFv: B1 scFv with M107A, Q108A, V109A
notes: as for B1
B55: 108_D5 (scFv)
scFv: B1 scFv with G106S, M107P, Q108H, V109T
notes: as for B1
B56: 109_G8 (scFv)
scFv: B1 scFv with Q108A, V109T
notes: as for B1
B57: 108_E8 (scFv)
scFv: B1 scFv with G106W, V109K
notes: as for B1
B58: 107_C1 (scFv)
scFv: B1 scFv with Q108S, V109M
notes: as for B1

Each binder was assayed against T1, MET928 (cMET protein derived from construct 25-928) (human, UniProt P08581 25-928) (assay: ELISA, soluble scFv).
T1 construct: MET ectodomain, residues 1-24 are the leader; produced in Lec 8 cells; background text says the ectodomain is furin-cleaved into alpha (25-307) and beta chains; biotinylated form used in selections; also called MET928 extracellular domain; Met extracellular domain
T1 sequence (P08581 25-928): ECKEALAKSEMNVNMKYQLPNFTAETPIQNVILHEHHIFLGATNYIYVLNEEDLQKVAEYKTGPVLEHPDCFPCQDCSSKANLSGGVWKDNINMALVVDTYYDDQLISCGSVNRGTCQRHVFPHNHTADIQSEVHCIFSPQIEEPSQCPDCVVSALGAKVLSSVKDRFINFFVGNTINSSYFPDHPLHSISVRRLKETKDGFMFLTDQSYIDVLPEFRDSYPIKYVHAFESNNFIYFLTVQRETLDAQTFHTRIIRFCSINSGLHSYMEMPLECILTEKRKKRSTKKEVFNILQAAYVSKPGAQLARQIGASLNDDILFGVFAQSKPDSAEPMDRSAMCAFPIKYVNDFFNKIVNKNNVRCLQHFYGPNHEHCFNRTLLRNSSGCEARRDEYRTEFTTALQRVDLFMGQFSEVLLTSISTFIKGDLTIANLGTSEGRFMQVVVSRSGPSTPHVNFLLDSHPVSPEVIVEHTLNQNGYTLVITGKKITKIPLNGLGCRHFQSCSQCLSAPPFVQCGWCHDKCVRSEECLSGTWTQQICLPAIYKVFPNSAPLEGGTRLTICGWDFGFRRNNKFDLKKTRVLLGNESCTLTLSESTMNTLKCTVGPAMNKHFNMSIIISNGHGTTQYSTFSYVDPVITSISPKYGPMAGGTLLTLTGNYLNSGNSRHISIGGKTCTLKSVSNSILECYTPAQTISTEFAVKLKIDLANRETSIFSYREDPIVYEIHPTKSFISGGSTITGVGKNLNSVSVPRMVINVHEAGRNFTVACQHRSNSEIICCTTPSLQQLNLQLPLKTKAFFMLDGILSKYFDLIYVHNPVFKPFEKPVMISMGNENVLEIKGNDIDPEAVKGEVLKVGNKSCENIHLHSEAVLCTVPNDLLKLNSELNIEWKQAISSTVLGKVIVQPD

binding result | Binder
binds | B1
binds | B2
binds | B3
binds | B4
binds | B5
binds | B6
binds | B7
binds | B8
binds | B9
binds | B10
binds | B11
binds | B12
binds | B13
binds | B14
binds | B15
binds | B16
binds | B17
binds | B18
binds | B19
binds | B20

binding result | Binder
binds | B21
binds | B22
binds | B23
binds | B24
binds | B25
binds | B26
binds | B27
binds | B28
binds | B29
binds | B30
binds | B31
binds | B32
binds | B33
binds | B34
binds | B35
binds | B36
binds | B37
binds | B38
binds | B39
binds | B40

binding result | Binder
binds | B41
binds | B42
binds | B43
binds | B44
binds | B45
binds | B46
binds | B47
binds | B48
binds | B49
binds | B50
binds | B51
binds | B52
binds | B53
binds | B54
binds | B55
binds | B56
binds | B57
binds | B58
